Measurements as given in the domain aggregation screens of Martell et al. (2025).

Assay: soluble fraction after stress (log2 fold change); higher = more stays soluble; pooled small domains, quantitative proteomics
Conditions: stress: pH 4
How it was run: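 With high-throughput quantitative proteomics, pooled custom libraries of small protein domains were measured after pH 4 stress. Each domain's soluble amount after the stress gives a fold change taken as aggregation propensity. Higher log2 values mean more of the domain stayed soluble.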

Row | Sequence | soluble fraction (log2)
1 | HMVSKEELANSIYENKTADELGNIVLRKGKYSGEMLRTIYVKDIGYLEWHSKQSYEYSNAVKWYLKKLE | -0.846
2 | HMVSLEEIINDLTSRIQTAVKMRFSDFVQNRKERVGVIVSFLGMLELVKQGIIDIKQEGHFADIEMETA | -0.58
3 | HMVSLSENQKIVLESLNTAMSARELMEILNLSDISHFRRNILNPLLLEGLIVRTKPDKPKSSKQKYIKANF | -0.354
4 | HMVSPEVEMLRAAVETMSERQKQVYELHYLRGFNVKETAAILGMSSPTVTAHKKRIMEIIKKFFE | -0.88
5 | HMVSPFQQQIADKVHNEIIAAKFNYDNATNENERLLAQLQAKKARELANQYGLDMSSYGADTTAERS | 0.00762
6 | HMVSSAEQQARDKESGMILVQEAGGPDKARALVEKMRQDIRNPALDGTRRQMLRGHVARIELALAELETG | -0.0115
7 | HMVSVGDIFAGRIISNENGHLLLQLLDGSKISAQTVTDLKYNIGDVLNLEIIEEKQGLIFVRQT | -0.471
8 | HMVSVLGRRIKELRLQNSMTQMQLAKKLGYKGNSLVAGWELGKNYPSVSSIKRLSEIFDTDLMKYVG | 0.22
9 | HMVTDTGAIEKVIDEVIAANPKQVQEIADQRAAGHEKPKTLGWLVGQIMKASGGKVNPAAVNEILLKKLG | 0.00199
10 | HMVTFDEISQSLVRDVAARRSLSVQTLHAMVDRYNAGSSINAVANQYGIDRLKLREILIELGVHVAT | -0.44
11 | HMVTLQEVKQYLRIDFEEEDPLLLSLLATAKQQVMNVGRMDEAQLSEHEDTARTAILYAVSYLYENRN | -1.63
12 | HMVTPAQQARDTLLGALVGLARATTSEPKTDDTDVVLNAGLRLAAQPDAPEERLQRMLAIVQTEKHRV | 0.215
13 | HMVTVNAFGKSGPEPAAMTKEALAKGADEVRVIVDSPTAAASVRDFLIGAGLRVQLQDDEGQLIVVGEKK | 0.344
14 | HMVVDEQRIQTLVSAAEQNSSDPVPRVTLGNLYFDAEQFEEAVKWYEQALALDPRNVNVSTDLGVGYYY | -0.451
15 | HMVVKLTQEQDRFIKTFNDKSLAFYYISSWGWGSFLRNGIGGVYEGDKTPFTLDEKEKMLNAIINGYEVI | -1.36
16 | HMVVKSPLEMAFDKFREMRKKIRKPMTERAEELIWKELSKLAGEDSDLKIEILEQSIRNGWQDVYAVK | -0.064
17 | HMVVLPGEVVALKIIQTGSSKDQGVGYLEDGTMVVVDGAKNSIGKTIEIQISRSHQTVAGRMLFGIAMS | -0.0841
18 | HMVVQTELVRISITSLSGEDIRRLVQIKVVGATIEPFEGGGFLITGTAEQIAKAKDFLNSMSTEF | -1.29
19 | HMVVRKHDRYYTPEHRKLLMDTYERTNKYPTKQDMSELAKIIGVLPIKILWWYTHRRRQDRRKGEESSSP | -2.23
20 | HMVVTMEKIVVNDGGIRIDTYLADKLNISRSKVAKMLENNILVNNVKVKPSYKVTNNDIIEVEEYV | 0.402
21 | HMVVVLPGETIKIDLIREGKDKQALGYLEDGTMIVVDNAKHLIGKNVEIEIDNVLPKEAGRVIFASLHGA | -0.942
22 | HMVVVMNADAEADEIKRVKWNLEQMLFRTQVIYGVKRIVIGAIGDQREVDLSEIEQMPKVDKIVRISK | -1.39
23 | HMVVVPDVKGLKIEEAAEFFKNNNLHYNVIDSVFSKDVEPGAIVELSPLAGSKVKEGRIVFITVNALTS | -0.681
24 | HMVVVVELTENEKAVQDVLTKNEGSLEISDLKTKLELSGKQWDKALKGLAKHGITQVAKVDGVVTVSL | -1.4
25 | HMVWMIEKDQSVILVNKLERIQVEALGKALENGNFGDRIRVINNKSGQKLLGIVESEKKIQIISKI | -0.077

Row | Sequence | soluble fraction (log2)
26 | HMVYLPGEEIPLKIIQEGKESGQGVGYLEDGTMVVVENGRRYLNQEVLVQVTKILQTNAGRLIFAVP | 0.11
27 | HMVYLPSSIKNIPTKYGEMMVANFKMDELQANSKNGWVSMVISERREPSEKGATHYAYVNTY | 0.106
28 | HMVYNQYILTQSVRLREEPGISGRVIRLLETGTTVELVDTVVVNKDDYDWVWVKLSDGAVGWIIKSAIDI | -1.03
29 | HMWDEMKDQKLVEALLLLREDERKLIYQHVFEERTFDDISRINGLPPYKVKGIYYYAIRKIRKWMG | -0.425
30 | HMWGQDVLFTIDKKEFKGKLLEQSDKHTTFLPDGQKTPQKIPNRLIKEIHLGSNKIIDFGNDFLI | 0.0314
31 | HMWPDDAIALPTRDGQDVGGAQERTMLAFASGAAGIRTVEEINPDGSITRLRTRYGWPTFETEGARTAAAE | -0.221
32 | HMWTIDPLDWKTENADQIVEKVMSEAKENAIILLHDRYEASVEAALRIVDLLKEQGYTFVTADKLV | -0.421
33 | HMWTKKELWNAIAKLPKKQRTVVMMRIAQNLPYKDISEITGMSIGSAKVNYHHAVNSLKQWLS | 0.22
34 | HMWTPLVVAVLIGGTHRFGELRAAVGGITPKVLTETLRSMERDGLVVREQTPGVPPRVDYALTPLGA | -0.191
35 | HMYAGTWISESGQWKYRNDDGSFAKGWFQDLDSRWYYFDANGHMLSDTLTPDGYRLGEDGAWVND | -1.42
36 | HMYDESVFTGEYHYYYEKLSDDDKLIYRQIYAMMQKRMDGISLNTTDTDNVSRIQQFVLLDNPQF | -2.43
37 | HMYDKKVFRLLFILNQLDSRKKVSTGELAKEFNVSPRTVQRDIVLLNTTGFPIISLEKGYHSFMEGFSLK | -0.7
38 | HMYDPVNEIGRVLKKIRQERSLTLDNVAEITGVSKTMLGQIERGVSVPTISVLWKIAKGLQVSLSTLLNE | 0.36
39 | HMYEGLPVTLIIDGRVIEANLAKANRDMAWLERELANSGVRSHHDVFFATLDSRGQLYYQVKN | -1.35
40 | HMYELDIYPNPAIDKINVLLPSSTTLPVKVEIYDIMGKKVNSLLTTKKAFTIETDQFEKGIYFVKA | 0.187
41 | HMYELREGDVVSVRILSQTGQNSYIASFAGGRFSVTSERAFAPGTVFSASVSLKDGTLVLSPL | 0.0111
42 | HMYFEDEELDRFVGTPAGAYTEEDVEEFRDVLLSLDIEEVPSWVRSLQLRGIDFPETLRPELYLL | -2.72
43 | HMYGQEVKVLGLFGDRAFIKVDEKSAVIRIGQSHQNVQLKSISNQKAILLVDNKDIALGLGDSYQSA | -0.397
44 | HMYGVAEFDEKGNVLSIEEKPVQPKSNYAVVGLYFYPNKVVGVASGIKPSARGELEITTVNQTFLRDEELK | 0.0152
45 | HMYHNKFADLAGFIAFNEKNEEIFTFGKYKGQNVKEVFQRDIGYYGWLQNADFPLYTKKVFTAIQLRSR | -1.07
46 | HMYHPGFEALREVARQGSFIKAARALGISGPAVSKQIKSLEARLNLVLLHRTTRAVTLTEAGQRLTEILD | -0.437
47 | HMYIDNVTIYDVGFNERIVHALERAGVKNLYDLSQMNFYQLQRIRNLGASSLEKVINRIHSYGILLKNES | -0.761
48 | HMYIEKTAYINDTAVNVRKSATTDSDVIKVLALNTEITIIGEENDWYKVKSGNDIGYIAKRLVSDQKKE | -0.109
49 | HMYIKYETVLQNITERIAALRKNGTLVLDGERTLAAEFDASRGTIRKAMRQLEENGTILREGYVTRILPE | -0.299
50 | HMYIVVPDLSKKDINEVANILAAQSLRFQVIDSANFRSDFPKNAVISQKPLAGSEVKVNKKIYLQLNPS | -0.608

Row | Sequence | soluble fraction (log2)
51 | HMYLEARVKSTTPILSKPNELGKSLGKLYTNDFVALVSLHKNGLDSYYRTANGGYINAADVVIDRDV | -0.133
52 | HMYLPLREVVFNALRTAIIHGEFKPGERLMEMHLAKSLGVSRTPVREAMRMLELEGLVVMIPKKGAEVAR | -0.408
53 | HMYMKMNDRIRSRRKELKMTQSVLAKLVGVNRVTITGWESGDYKPGGENLQALAAALEKTPQWLLDGKD | ≥ 0.43
54 | HMYMTTADADMWKYVNTGRYNNDIQLMEEYKNRSMDSFEVITPEQQRKYNKAAMNLNSYYAWADPSYKPNP | -0.888
55 | HMYMWQVEDLLRANELDIENIKKTIIDHYQLDDAQKSELTRWYEDLINMMRLEGVTKEGHLQINK | -1.75
56 | HMYNSYALTARELELVNYVLKGNSRREMAEDSGLKENTVASYMKRLYRKIKVHSRKELKELFM | -0.422
57 | HMYPDNEQTLSKLAFEFFKKRNIPISQSNINQIVTKSLGDRENLYNELLKIENFSTSGKKLTDNVIKKLIN | 0.176
58 | HMYPFSEETLKEKIREYLKTNRSINRRVLEREFYIRKQTALNWLNRLVDSGFLIKEGVRNSPVYFLAE | 0.26
59 | HMYPMQNYSTIIGVIELRQQSVGYATTQKRYGIGSSTVTLIMKRFKELGLTLEELRAMPPKAVEVAFYPPE | 0.246
60 | HMYPNEFPRKVMSVFESSGLEMFRTIEMLLAIPEYETPLPYGSGVSRSDIFVLAKSAGNLVSITV | -0.314
61 | HMYQFFVDPGQIQGKRVTITGSDVNHIKNVLRMRIGEEIAVSNGKDGLEYRFGIDEILEDEVIGTLRFVKE | -1.87
62 | HMYRIGELAKLADVTPDTIRYYEKQQMMDHDVRTEGGFRLYSDNDLQRLKFIRYARQLGFTLEAIRELLSI | -0.51
63 | HMYRWSEEIFEKLRSDIMAALDLSREQNDEEIYRFIETEVEEYSQNNLLTLKEREQLEHLLFNSL | -1.12
64 | HMYSKVSFTVSVGMTSERVSASLKALGIIDDSAKFNRYLVSNGYSTRIKVGTVELQAGQSYAEIASKLV | 0.151
65 | HMYSLSELERIKNFLTGYMSDYSIMMLDANEITNQVDISLKDYSDDNIESIKAAVLSHGGKTDYLNFIDDS | -1.01
66 | HMYSQEEKRYMEIMEIKPQELSAENLKKQYKKLVKKYHPDLHQDDKQAAEEKFKQLTNAYQVLMRRF | -0.0526
67 | HMYSSASKEEIDQLMKRLILNLDAKGYFWPQDKEKSLKLYLHNLFSKLPLNSSDIRFLHGLIRALSEE | -0.693
68 | HMYSSIIGIAFTRAENKPAAPTGGSYSNPHPVDGNWKAAPYDGDGNLWYSIRHFNENVDIQDREWSDPTLG | 0.0834
69 | HMYSYSGSVINTYKVPVSVVLKDANGSAIASWDLPVDQSLGISAKDIATSSGTIEITGDGVNETKTVTFTK | -0.159
70 | HMYTGSEGMAGLEGRAVTEVGPEAGTVLVKGEYWQARSDEPIATDRKIRVIRLEGLRLRVAEIHPEG | 0.169
71 | HMYTPDYLSDLMVRMAHHSTAIEGNTLTQGETKSVLVDGYIPRAMDMRELNEVLNYKAFMTFLVE | -0.35
72 | HMYTTHTQSELNEAARFNGRATYQKGIYYNESKKEHFKVVNGKYQALPNVKQVNGDSWIDKTGITHKG | 0.202
73 | HMYTVQQLARLAGITPRTLRHYDAIGLLKPTRVGENGYRYYGSEALLRLQSILLYRELDMPLEDIRRVLDS | -1.23
74 | HMYVPEVPVPDLLGRSEEEAKNLIEDLGLVFKVSKREYSKEYDEGHVMEQSVDEGAKVKENYPVEVVISR | -0.325
75 | HMYYDDEELDDYRGKASDAYTAAEVEQFEEVLTTMRPEEVHGWLRSLQLRGVALPDALKDEAYMIVSEQAE | -0.727
